# Source: patent US20140322220A1
# B1: M021-H02-hIgG1 (antibody, V domains shown)
# VH: EVQLLESGGGLVQPGGSLRLSCAASGFTFSNYGIHWVRQAPGKGLEWVAVISYDGSNKYYADSVKGRFTISRDNSKNTLYLQMNSLRAEDTAMYYCARDSSSAEDYWGQGTLVTVSS
# VL: QSVLTQPPSASGTPGQRVTISCSGSSSNTGSNTVNWYQQLPGTAPKLLIYRNNQRPSGVPDRFSGSKSGTSASLAISGLRSEDEADYYCETWDSNTRGVVFGGGTKLTVL
# B2: M021-H02 (soluble Fab) (Fab, V domains shown)
# VH: B1 VH
# VL: B1 VL
# B3: M048-D01 (soluble Fab) (Fab, V domains shown)
# VH: EVQLLESGGGLVQPGGSLRLSCAASGFTFSSYAMSWVRQAPGKGLEWVSAISGSGTSTYYADSVKGRFTISRDNSKNTLYLQMNSLRAEDTAVYYCARVRYNWNHGDWFDPWGQGTLVTVSS
# VL: QSVLTQPPSASGTPGQRVTISCSGSSSNIGNNYVSWYQQLPGTAPKLLIYENYNRPAGVPDRFSGSKSGTSASLAISGLRSEDEADYYCSSWDDSLNYWVFGGGTKLTVL
# What was measured:
# [1] = molecular target: murine FGFR2 on murine cancer cell lines (murine) (UniProt P21803); assay: FACS, 5 ug/ml, 4T1 cells
# [2] = molecular target: human FGFR2 on human cancer cell lines (human) (UniProt P21802); assay: FACS, 5 ug/ml, HEC1b cells
# [3] = molecular target: human FGFR2 on human cancer cell lines (human) (UniProt P21802); assay: FACS, 5 ug/ml, SNU16 cells
# [4] = molecular target: human FGFR2 on human cancer cell lines (human) (UniProt P21802); assay: FACS, 5 ug/ml, MFE280 cells
# [5] = molecular target: human FGFR2 on human cancer cell lines (human) (UniProt P21802); assay: FACS, 5 ug/ml, KATOIII cells
# [6] = molecular target: human FGFR2 on human cancer cell lines (human) (UniProt P21802); assay: FACS, 5 ug/ml, NCI-N87 cells
# [7] = molecular target: murine FGFR2 on murine cancer cell lines (murine) (UniProt P21803); assay: FACS titration 0.1-100 nM, 4T1 cells
# [8] = molecular target: human FGFR2 on human cancer cell lines (human) (UniProt P21802); assay: FACS titration 0.1-100 nM, SNU16 cells
# [9] = molecular target: human FGFR2 on human cancer cell lines (human) (UniProt P21802); assay: FACS titration 0.1-100 nM, MFM223 cells
# [10] = molecular target: hFGFR2β-Fc (IIIc) (human) (UniProt P21802); assay: ELISA, 1 ug/ml Fab on coated antigen; grade of signal to background (+ 2-3, ++ 3-5, +++ >5)
# [11] = molecular target: mFGFR2β-Fc (IIIc) (murine) (UniProt P21803); assay: as above
Binder,Geo Mean minus Geo Mean of secondary antibody alone (FACS) [1] [geomean],Geo Mean minus Geo Mean of secondary antibody alone (FACS) [2] [geomean],Geo Mean minus Geo Mean of secondary antibody alone (FACS) [3] [geomean],Geo Mean minus Geo Mean of secondary antibody alone (FACS) [4] [geomean],Geo Mean minus Geo Mean of secondary antibody alone (FACS) [5] [geomean],Geo Mean minus Geo Mean of secondary antibody alone (FACS) [6] [geomean],EC50 [7] [nM],EC50 [8] [nM],EC50 [9] [nM],ELISA signal to background ratio [10],ELISA signal to background ratio [11]
B1,100 to 1000,100 to 1000,100 to 1000,10 to 100,> 10000,10 to 100,20.8,89.5,16.9,,
B2,,,,,,,,,,> 5,> 5
B3,,,,,,,,,,> 5,> 5
